Data taken from the Human Domainome abundance scans (Beltran et al. 2025).
± gives the uncertainty stated by the source.

Assay: abundance fitness (aPCA) (normalised: wild type 0, dead -1); higher = more abundant; growth selection in yeast, the domain comes from the species named
Settings: Homo sapiens

Row | Substance | abundance fitness
1 | Scaffold attachment factor B2 V35D, Q14151 | -0.087 ± 0.11
2 | Scaffold attachment factor B2 T49E, Q14151 | -0.26 ± 0.094
3 | Scaffold attachment factor B2 K43Q, Q14151 | -0.124 ± 0.096
4 | Scaffold attachment factor B2 G51I, Q14151 | -1.25 ± 0.4
5 | Scaffold attachment factor B2 V64D, Q14151 | -0.232 ± 0.18
6 | Scaffold attachment factor B2 L30S, Q14151 | -0.233 ± 0.095
7 | Tyrosine-protein kinase Lck I67H, P06239 | -0.353 ± 0.13
8 | Scaffold attachment factor B2 V35E, Q14151 | 0.129 ± 0.083
9 | Scaffold attachment factor B2 L33Q, Q14151 | -0.24 ± 0.096
10 | Scaffold attachment factor B2 T27L, Q14151 | -0.074 ± 0.13
11 | Scaffold attachment factor B2 M57L, Q14151 | -0.088 ± 0.11
12 | Scaffold attachment factor B2 L56G, Q14151 | -0.285 ± 0.079
13 | Scaffold attachment factor B2 L56Y, Q14151 | -1.01 ± 0.23
14 | Scaffold attachment factor B2 R28Y, Q14151 | -0.377 ± 0.18
15 | Scaffold attachment factor B2 T49Y, Q14151 | -0.512 ± 0.18
16 | Scaffold attachment factor B2 V55C, Q14151 | -0.294 ± 0.12
17 | Scaffold attachment factor B2 I36C, Q14151 | 0.086 ± 0.099
18 | Scaffold attachment factor B2 K65M, Q14151 | -0.181 ± 0.11
19 | Scaffold attachment factor B2 A40S, Q14151 | -0.168 ± 0.12
20 | Scaffold attachment factor B2 V64W, Q14151 | -0.025 ± 0.086
21 | Scaffold attachment factor B2 V55S, Q14151 | -0.496 ± 0.11
22 | Scaffold attachment factor B2 K53N, Q14151 | -0.463 ± 0.14

Row | Substance | abundance fitness
23 | Tyrosine-protein kinase Lck I67T, P06239 | 0.151 ± 0.16
24 | Tyrosine-protein kinase Lck I67P, P06239 | -0.607 ± 0.15
25 | Scaffold attachment factor B2 E32S, Q14151 | -0.36 ± 0.093
26 | Scaffold attachment factor B2 Q69P, Q14151 | -0.227 ± 0.15
27 | Tyrosine-protein kinase Lck I67A, P06239 | -0.465 ± 0.1
28 | Scaffold attachment factor B2 D48L, Q14151 | -0.513 ± 0.094
29 | Scaffold attachment factor B2 V55Y, Q14151 | -0.605 ± 0.18
30 | Scaffold attachment factor B2 R34W, Q14151 | -0.679 ± 0.086
31 | Tyrosine-protein kinase Lck K99L, P06239 | -0.125 ± 0.074
32 | Scaffold attachment factor B2 K61G, Q14151 | -0.015 ± 0.1
33 | Scaffold attachment factor B2 R45E, Q14151 | -0.411 ± 0.097
34 | Scaffold attachment factor B2 L33T, Q14151 | -0.268 ± 0.1
35 | Scaffold attachment factor B2 R34K, Q14151 | -0.184 ± 0.12
36 | Scaffold attachment factor B2 L60A, Q14151 | -0.323 ± 0.094
37 | Scaffold attachment factor B2 E67S, Q14151 | -0.226 ± 0.095
38 | Scaffold attachment factor B2 K43W, Q14151 | -0.359 ± 0.094
39 | Scaffold attachment factor B2 T49M, Q14151 | -0.606 ± 0.12
40 | Scaffold attachment factor B2 G50H, Q14151 | -0.108 ± 0.093
41 | Scaffold attachment factor B2 N46C, Q14151 | -0.656 ± 0.12
42 | Scaffold attachment factor B2 D37K, Q14151 | -1.19 ± 0.18
43 | Scaffold attachment factor B2 L47T, Q14151 | -0.409 ± 0.13
44 | Scaffold attachment factor B2 L38H, Q14151 | -0.578 ± 0.13
